# Measurements reported in US20240084003A1 (SIMCERE ZAIMING PHARMACEUTICAL, published 2024).
# T1: murine CD22 protein (ACROBiosystems, SI2-M52Ha) (murine, UniProt P35329 22-708)
# T1 construct: extracellular domain; also called murine CD22-ECD; murine CD22-ECD-His
# T1 sequence (looked up): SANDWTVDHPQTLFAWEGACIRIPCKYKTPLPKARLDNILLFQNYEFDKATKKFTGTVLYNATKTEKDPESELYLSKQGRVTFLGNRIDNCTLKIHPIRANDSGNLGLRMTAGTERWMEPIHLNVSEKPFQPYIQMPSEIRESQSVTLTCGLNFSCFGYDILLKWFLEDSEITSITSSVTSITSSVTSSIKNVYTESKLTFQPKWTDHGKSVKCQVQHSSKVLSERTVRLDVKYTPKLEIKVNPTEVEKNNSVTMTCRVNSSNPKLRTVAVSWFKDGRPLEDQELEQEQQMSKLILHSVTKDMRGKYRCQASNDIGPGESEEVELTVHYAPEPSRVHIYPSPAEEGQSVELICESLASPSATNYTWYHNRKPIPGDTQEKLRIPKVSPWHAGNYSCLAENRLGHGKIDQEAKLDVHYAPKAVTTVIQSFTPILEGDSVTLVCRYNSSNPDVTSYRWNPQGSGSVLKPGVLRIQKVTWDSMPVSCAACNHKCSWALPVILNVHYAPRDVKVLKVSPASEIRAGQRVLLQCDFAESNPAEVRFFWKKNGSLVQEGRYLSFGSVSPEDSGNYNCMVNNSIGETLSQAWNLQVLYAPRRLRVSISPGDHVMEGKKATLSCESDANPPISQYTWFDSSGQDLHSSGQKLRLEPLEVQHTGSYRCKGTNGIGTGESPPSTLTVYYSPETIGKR
# T2: human CD22, full length, on CHO-K1-human CD22 2C4 cells (human, UniProt P20273 20-847)
# T2 construct: Full-length human CD22 (NCBI NP_001762.2) stably transfected into CHO-K1
# T2 sequence: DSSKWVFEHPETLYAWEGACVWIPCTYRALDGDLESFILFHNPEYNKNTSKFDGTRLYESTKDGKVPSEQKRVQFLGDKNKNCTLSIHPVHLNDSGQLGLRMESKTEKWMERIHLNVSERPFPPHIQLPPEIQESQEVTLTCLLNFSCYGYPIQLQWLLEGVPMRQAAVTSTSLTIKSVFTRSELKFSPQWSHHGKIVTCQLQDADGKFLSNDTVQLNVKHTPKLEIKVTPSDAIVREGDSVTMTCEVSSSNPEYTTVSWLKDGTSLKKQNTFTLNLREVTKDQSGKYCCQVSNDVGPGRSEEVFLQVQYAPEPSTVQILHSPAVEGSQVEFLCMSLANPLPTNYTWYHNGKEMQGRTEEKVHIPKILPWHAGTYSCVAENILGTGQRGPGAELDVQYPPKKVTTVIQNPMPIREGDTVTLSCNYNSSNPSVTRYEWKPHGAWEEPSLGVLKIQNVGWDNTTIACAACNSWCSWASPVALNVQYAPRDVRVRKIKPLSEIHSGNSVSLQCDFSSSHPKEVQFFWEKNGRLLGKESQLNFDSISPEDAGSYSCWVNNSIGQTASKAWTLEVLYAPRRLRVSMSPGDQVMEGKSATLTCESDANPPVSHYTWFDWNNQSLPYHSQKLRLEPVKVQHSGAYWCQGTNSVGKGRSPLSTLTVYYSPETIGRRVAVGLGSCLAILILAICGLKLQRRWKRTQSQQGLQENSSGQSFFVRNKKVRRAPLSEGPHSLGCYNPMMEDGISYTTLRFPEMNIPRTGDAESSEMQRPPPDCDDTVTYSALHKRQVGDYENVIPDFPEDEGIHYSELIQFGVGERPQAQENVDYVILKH
# T3: human CD22, endogenous on Raji cells (human, UniProt P20273 20-847)
# T3 construct: whole, on cells; Endogenous protein of the Raji cell line
# T3 sequence (looked up): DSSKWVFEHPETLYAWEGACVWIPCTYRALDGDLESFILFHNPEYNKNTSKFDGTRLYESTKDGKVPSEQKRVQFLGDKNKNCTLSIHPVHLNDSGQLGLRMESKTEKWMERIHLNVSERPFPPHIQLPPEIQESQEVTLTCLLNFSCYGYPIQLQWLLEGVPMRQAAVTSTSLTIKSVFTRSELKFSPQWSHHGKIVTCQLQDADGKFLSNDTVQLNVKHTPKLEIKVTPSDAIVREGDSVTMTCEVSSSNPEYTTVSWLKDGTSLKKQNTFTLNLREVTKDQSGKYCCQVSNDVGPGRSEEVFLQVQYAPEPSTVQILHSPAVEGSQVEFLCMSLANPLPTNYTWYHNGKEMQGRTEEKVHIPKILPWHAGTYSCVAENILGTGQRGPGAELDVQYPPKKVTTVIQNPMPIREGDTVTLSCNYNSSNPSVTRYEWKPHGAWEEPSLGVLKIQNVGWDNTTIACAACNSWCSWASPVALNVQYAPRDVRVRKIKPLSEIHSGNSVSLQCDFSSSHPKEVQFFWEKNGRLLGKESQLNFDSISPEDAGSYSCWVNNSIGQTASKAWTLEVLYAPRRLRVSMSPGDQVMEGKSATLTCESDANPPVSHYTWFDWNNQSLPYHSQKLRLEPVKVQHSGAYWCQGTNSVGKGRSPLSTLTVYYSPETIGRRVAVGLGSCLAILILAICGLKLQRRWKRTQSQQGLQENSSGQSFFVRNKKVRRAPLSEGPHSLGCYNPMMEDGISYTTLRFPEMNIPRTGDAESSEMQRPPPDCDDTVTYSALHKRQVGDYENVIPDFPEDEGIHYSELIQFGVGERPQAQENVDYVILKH
# Tests used:
# [1] = target: T1, murine CD22 protein (ACROBiosystems, …); experiment: ELISA, coated murine CD22, 0.0001 nM Ab
# Description: (§1) In order to detect the binding activity of CD22 human-murine chimeric antibodies to CD22 protein, the purified human CD22-ECD-His protein obtained in Example 2 was diluted with PBS to a final concentration of 2 μg/mL, and then added to 96-well ELISA plate at 100 μl/well. The plate was sealed with plastic film and incubated overnight at 4° C., the plate was washed 2 times with PBS the next day, and then a blocking solution [PBS+2% (w/w) BSA] was added for blocking at room temperature for 2 hours. […] After incubation at 37° C. for 2 hours, the plate was washed 3 times with PBS. HRP (horseradish peroxidase)-labeled secondary antibody (purchased from Sigma, catalog number: A0170) was added, and incubated at 37° C. for 2 hours, and the plate was washed 5 times with PBS. TMB substrate was added at 50 μl/well, and incubated at room temperature for 30 minutes, then a stop solution (1.0 N HCl) was added at 50 μl/well.
# (§2) In order to detect the species cross-binding activity of the chimeric antibodies, an ELISA plate was coated with commercial murine CD22 protein (ACROBiosystems, catalog number: SI2-M52Ha) and monkey CD22 protein (ACROBiosystems, catalog number: SI2-R52Ha), respectively, and the ELISA detection was performed according to the method in Example 5.1.
# [2] = target: T1, murine CD22 protein (ACROBiosystems, …); experiment: ELISA, coated murine CD22, 0.00001 nM Ab
# Description: as §1, §2
# [3] = target: T1, murine CD22 protein (ACROBiosystems, …); experiment: ELISA, coated murine CD22, 100 nM Ab
# Description: as §1, §2
# [4] = target: T1, murine CD22 protein (ACROBiosystems, …); experiment: ELISA, coated murine CD22, 0.1 nM Ab
# Description: as §1, §2
# [5] = target: T1, murine CD22 protein (ACROBiosystems, …); experiment: ELISA, coated murine CD22, 10 nM Ab
# Description: as §1, §2
# [6] = target: T1, murine CD22 protein (ACROBiosystems, …); experiment: ELISA, coated murine CD22, 0.01 nM Ab
# Description: as §1, §2
# [7] = target: T1, murine CD22 protein (ACROBiosystems, …); experiment: ELISA, coated murine CD22, 0.001 nM Ab
# Description: as §1, §2
# [8] = target: T2, human CD22, full length, on …; experiment: FACS, CHO-K1-human CD22 2C4 cells
# Source text: (§3) The required cells were scale-up cultured in a T-75 cell culture flask to the logarithmic growth phase. For the adherent cell CHO-K1, the medium was aspirated, the cells were washed 2 times with PBS buffer, and then digested with trypsin. After the digestion was terminated, the cells were washed 2 times with PBS buffer. For suspension cell Raji, the medium supernatant was directly centrifuged and discarded, and the cell pellet was washed 2 times with PBS. After counting the cells in the previous step, the cell pellet was resuspended with [PBS+2% (w/w) BSA] blocking solution to 2×10⁶ cells/ml, and added to a 96-well FACS reaction plate at 50 μl/well, and then the chimeric antibody test sample was added at 50 μl/well, and incubated on ice for 2 hours. The mixture was centrifuged and washed 3 times with PBS buffer, Alexa Flour 488-labeled secondary antibody (purchased from Invitrogen, catalog number: A-11013) was added at 50 μl/well, and incubated on ice for 1 hour. The obtained mixture was centrifuged and washed 5 times with PBS, and FACS (FACS Canto™, purchased from BD Company) was used for detection and result analysis. Data analysis was performed by software (CellQuest) to obtain the mean fluorescence density (MFI)of the cells. And then software (GraphPad Prism8) was used for analysis, data fitting, and EC50 value calculation. […] The same method was used to detect the binding of the chimeric antibodies to endogenous CD22-negative cell MoLT4 cells (purchased from ATCC, CRL-1582) and CHO-K1 cells.
# [9] = target: T3, human CD22, endogenous on Raji cells; experiment: FACS, Raji cells
# Source text: as §3
OD450 [1] [OD450],OD450 [2] [OD450],OD450 [3] [OD450],OD450 [4] [OD450],OD450 [5] [OD450],OD450 [6] [OD450],OD450 [7] [OD450],EC50 [8] [nM],Maximum mean fluorescence intensity [8] [MFI],EC50 [9] [nM],Maximum mean fluorescence intensity [9] [MFI],Binder
0.07,0.07,0.11,0.07,0.08,0.07,0.06,,,,,"m971-hIgG1 (antibody, V domains shown, Positive control anti-human CD22 antibody; V regions from US 8,591,889 B on human IgG1 constant regions) VH: QVQLQQSGPGLVKPSQTLSLTCAISGDSVSSNSAAWNWIRQSPSRGLEWLGRTYYRSKWYNDYAVSVKSRITINPDTSKNQFSLQLNSVTPEDTAVYYCAREVTGDLEDAFDIWGQGTMVTVSS VL: DIQMTQSPSSLSASVGDRVTITCRASQTIWSYLNWYQQRPGKAPNLLIYAASSLQSGVPSRFSGRGSGTDFTLTISSLQAEDFATYYCQQSYSIPQTFGQGTKLEIKR"
0.05,0.05,0.08,0.05,0.05,0.05,0.05,2.53,28300,1.39,24400,"F1.105.11 human-murine chimeric antibody (antibody, human IgG1, kappa, V domains shown, Chimeric, human IgG1 / kappa; VL tied by name) VH: EVQLQQSGPVLVKPGASVKMSCKASGYTFSDYFMNWVKQSHGKSLEWIGIINSYSGGTSYNQKFKGKATLTVDKSSSTAYMELNSLTSEDSAVYYCARWMDYWGQGTSVTVSS VL: DVQITQSPSYLAASPGETITINCRTSESISKHLAWYQEKPGKTNKLLIYSGSTLQSGIPSRFSGSGSGTDFTLTISSLEPEDFAMYYCQQHNEYPWTFGGGTKLEIKR"
0.06,0.06,0.07,0.06,0.06,0.06,0.06,0.63,29700,0.23,25900,"F1.7.6 human-murine chimeric antibody (antibody, human IgG1, kappa, V domains shown, Chimeric, human IgG1 / kappa; VL tied by name) VH: EIQLQQSGPELVKPGTSVKVSCKASGYDFTRYNMYWVKQSHGKSLEWIGYIDPYNGDTRYNQKFKGKATLTVDKSSSTAYMHLNSLTSEDSAVYYCEAIYYDMEGYALDYWGQGTSVTVSS VL: DIVMSQSPSSLAVSVGEKVTMSCKSSQSLLYSNNQKNYLAWYQQKPGQSPKKLIYWASTRESGVPDRLTGSGSGTDFTLTISSVTAEDLAVYYCQQFYSYPWTFGGGTKLEIKR"
0.05,0.06,0.07,0.05,0.1,0.06,0.05,0.99,30400,0.65,23600,"F1.224.1 human-murine chimeric antibody (antibody, human IgG1, kappa, V domains shown, Chimeric, human IgG1 / kappa; VL tied by name) VH: EVLLHQSGPELVKPGASVKISCKASGYTFTDFNMDWVRQRHGQSLEWIGDVNPNNGGTIYNQKFKGKATLTVDKSSSTVYMDLRSLTSDDTAVYYCVRLGTSDYGEAWFISWGQGTVVTVSA VL: DIVLTQSPASLAVSLGQRATISCRASQSVSTPRYSFMHWYQQKPGQPPKLLIKYASNLESGFPARFTGSGSGTDFTLNIHPVEEEDTAAYYCQQSWAIPWTFGGGTKLEIKR"
0.05,0.06,0.06,0.05,0.06,0.05,0.05,1.18,35400,0.45,28800,"F1.231.15 human-murine chimeric antibody (antibody, human IgG1, V domains shown, Chimeric: murine V regions on human IgG1 heavy constant region and kappa light constant region) VH: QVQLQQPGAELVKPGASVKLSCKTSGYTFTIYWMQWVKQRPGRGLEWIGRIDPHSGDTHYNENFTTKVTLTVDETSNTAYMHLSGLTSEDSAVYYCARRDYSYYVLDYWGQGTSVTVSS VL: DVVLTQTPLSLPVSLGDQASISCRSSQSLVHINGDTYLHWYLQKPGQSPKLLIYTVFNRFSGVPDRFSGSGSGTDFTLKISRVEAEDLGAYFCSQSTHVPYTFGGGTKLEIKR"
0.07,0.07,0.07,0.06,0.08,0.06,0.07,2.08,31200,1.66,26700,"F1.267.9 human-murine chimeric antibody (antibody, human IgG1, kappa, V domains shown, Chimeric, human IgG1 / kappa; VL tied by name) VH: EVQLQQSGPVLVKPGASVKMSCKASGYTFTDFYMNWAKQSHGKSLEWVGVINPYNGGINYNQKFKGKATLTVDKSSSTAYMEFNSLTSEDSAVYYCARRMEYHAMDYWGQGTSVTVSS VL: DIVLTQSPASLAVSLGQRATISCRASESVDNYGFDFIHWYQQKPGQPPKLLIYRASNLESGIPARFSGSGSRPDFTLTINPVETDDVATYYCQQSIKDPWTFGGGTKLEIKR"
